Reference: the supplement of paper PMC10567573

B1: PLAGL1 (parent)
chain: LELGSTEVLLDHLKAHAEEKPPSG

Variants of: B1
Assay: protein stability index of a GFP-peptide fusion (GPS, HEK-293T) (PSI 1-6); higher = more stable
Conditions: c terminus: a fixed tail appended
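Also: lentivirally expressed fusions sorted by FACS into six bins by GFP to DsRed ratio, PSI derived from sequencing read proportions per bin multiplied by bin number.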

Question: Which protein stability index does the source give for E19F here?
Answer: 2.33

Question: With E19D as the variant, how does the protein stability index read?
Answer: 4.48

Question: With E19W as the variant, how does the protein stability index read?
Answer: 3.23

Question: Which protein stability index does the source give for E19H here?
Answer: 3.61

Question: With E19I as the variant, how does the protein stability index read?
Answer: 3.14

Question: Which protein stability index does the source give for E19G here?
Answer: 2.45

Question: With E19A as the variant, how does the protein stability index read?
Answer: 3.73

Question: With E19K as the variant, how does the protein stability index read?
Answer: 3.55

Question: Which protein stability index does the source give for E19S here?
Answer: 3.65

Question: With E19L as the variant, how does the protein stability index read?
Answer: 2.64

Question: For E19P, which protein stability index is on record?
Answer: 4.28

Question: With E19C as the variant, how does the protein stability index read?
Answer: 3.12

Question: Which protein stability index does the source give for E19T here?
Answer: 3.55

Question: Which protein stability index does the source give for E19Y here?
Answer: 3.32

Question: For E19Q, which protein stability index is on record?
Answer: 3.89

Question: For E19M, which protein stability index is on record?
Answer: 3.41

Question: Which protein stability index does the source give for E19V here?
Answer: 3.27

Question: Which protein stability index does the source give for E19N here?
Answer: 4.03

Question: Which protein stability index does the source give for E19R here?
Answer: 3.58

Question: With A15I as the variant, how does the protein stability index read?
Answer: 4.24

Question: With A15V as the variant, how does the protein stability index read?
Answer: 4.72

Question: With A15D as the variant, how does the protein stability index read?
Answer: 4.8

Question: Which protein stability index does the source give for A15T here?
Answer: 5.14

Question: For A15M, which protein stability index is on record?
Answer: 4.48

Question: For A15S, which protein stability index is on record?
Answer: 4.44

Question: Which protein stability index does the source give for A15H here?
Answer: 4.37

Question: With A15K as the variant, how does the protein stability index read?
Answer: 3.87

Question: Which protein stability index does the source give for A15E here?
Answer: 5.05

Question: For A15W, which protein stability index is on record?
Answer: 3.54

Question: For A15G, which protein stability index is on record?
Answer: 4.29

Question: With A15P as the variant, how does the protein stability index read?
Answer: 5.41

Question: For A15Y, which protein stability index is on record?
Answer: 4.04

Question: With A15R as the variant, how does the protein stability index read?
Answer: 3.89

Question: With A15N as the variant, how does the protein stability index read?
Answer: 4.73

Question: With A15C as the variant, how does the protein stability index read?
Answer: 4.04

Question: With A15F as the variant, how does the protein stability index read?
Answer: 4.18

Question: With A15L as the variant, how does the protein stability index read?
Answer: 4.83

Question: For A15Q, which protein stability index is on record?
Answer: 4.63

Question: Which protein stability index does the source give for K20H here?
Answer: 3.59

Question: For K20R, which protein stability index is on record?
Answer: 4.26

Question: Which protein stability index does the source give for K20C here?
Answer: 4

Question: With K20L as the variant, how does the protein stability index read?
Answer: 3.9

Question: With K20S as the variant, how does the protein stability index read?
Answer: 4.21

Question: With K20E as the variant, how does the protein stability index read?
Answer: 5.18

Question: For K20Q, which protein stability index is on record?
Answer: 3.56

Question: For K20F, which protein stability index is on record?
Answer: 2.9

Question: Which protein stability index does the source give for K20I here?
Answer: 3.71

Question: Which protein stability index does the source give for K20Y here?
Answer: 3.6

Question: For K20W, which protein stability index is on record?
Answer: 4.06

Question: Which protein stability index does the source give for K20P here?
Answer: 4.88

Question: With K20D as the variant, how does the protein stability index read?
Answer: 4.64

Question: For K20M, which protein stability index is on record?
Answer: 4.01

Question: With K20A as the variant, how does the protein stability index read?
Answer: 4.56

Question: With K20T as the variant, how does the protein stability index read?
Answer: 4.86

Question: With K20G as the variant, how does the protein stability index read?
Answer: 4.22

Question: Which protein stability index does the source give for K20V here?
Answer: 4.41

Question: Which protein stability index does the source give for K20N here?
Answer: 4.58

Question: With P22R as the variant, how does the protein stability index read?
Answer: 4.1

Question: For P22S, which protein stability index is on record?
Answer: 4.79

Question: With P22C as the variant, how does the protein stability index read?
Answer: 4.58

Question: With P22K as the variant, how does the protein stability index read?
Answer: 4.25

Question: Which protein stability index does the source give for P22T here?
Answer: 4.88

Question: With P22D as the variant, how does the protein stability index read?
Answer: 4.88

Question: For P22V, which protein stability index is on record?
Answer: 3.81

Question: For P22W, which protein stability index is on record?
Answer: 3.38

Question: With P22H as the variant, how does the protein stability index read?
Answer: 4.03

Question: Which protein stability index does the source give for P22I here?
Answer: 4.06

Question: For P22Q, which protein stability index is on record?
Answer: 4.85

Question: For P22L, which protein stability index is on record?
Answer: 3.9

Question: With P22A as the variant, how does the protein stability index read?
Answer: 4.49

Question: With P22E as the variant, how does the protein stability index read?
Answer: 5.08

Question: Which protein stability index does the source give for P22F here?
Answer: 3.35

Question: With P22M as the variant, how does the protein stability index read?
Answer: 3.85

Question: Which protein stability index does the source give for P22Y here?
Answer: 3.9

Question: With P22G as the variant, how does the protein stability index read?
Answer: 4.4

Question: With P22N as the variant, how does the protein stability index read?
Answer: 4.95

Question: For A17R, which protein stability index is on record?
Answer: 4.39

Question: Which protein stability index does the source give for A17H here?
Answer: 4.13

Question: Which protein stability index does the source give for A17F here?
Answer: 2.97

Question: With A17C as the variant, how does the protein stability index read?
Answer: 3.74

Question: With A17V as the variant, how does the protein stability index read?
Answer: 3.88

Question: Which protein stability index does the source give for A17D here?
Answer: 4.66

Question: With A17W as the variant, how does the protein stability index read?
Answer: 3.35

Question: Which protein stability index does the source give for A17N here?
Answer: 4.7

Question: For A17Y, which protein stability index is on record?
Answer: 3.4

Question: Which protein stability index does the source give for A17S here?
Answer: 4.01

Question: Which protein stability index does the source give for A17M here?
Answer: 2.74

Question: Which protein stability index does the source give for A17I here?
Answer: 3.37

Question: With A17K as the variant, how does the protein stability index read?
Answer: 4.11

Question: Which protein stability index does the source give for A17L here?
Answer: 3.21

Question: For A17P, which protein stability index is on record?
Answer: 4.66

Question: With A17E as the variant, how does the protein stability index read?
Answer: 4.67

Question: For A17Q, which protein stability index is on record?
Answer: 4.65

Question: Which protein stability index does the source give for A17G here?
Answer: 4.35

Question: For A17T, which protein stability index is on record?
Answer: 4.16

Question: With E18I as the variant, how does the protein stability index read?
Answer: 2.62

Question: With E18N as the variant, how does the protein stability index read?
Answer: 3.53

Question: Which protein stability index does the source give for E18A here?
Answer: 3.45

Question: Which protein stability index does the source give for E18Y here?
Answer: 3.25

Question: For E18C, which protein stability index is on record?
Answer: 3.39

Question: For E18F, which protein stability index is on record?
Answer: 2.08

Question: For E18K, which protein stability index is on record?
Answer: 2.7

Question: For E18W, which protein stability index is on record?
Answer: 2.07

Question: With E18G as the variant, how does the protein stability index read?
Answer: 2.66

Question: For E18D, which protein stability index is on record?
Answer: 4.55

Question: With E18H as the variant, how does the protein stability index read?
Answer: 3.27

Question: Which protein stability index does the source give for E18P here?
Answer: 3.28

Question: With E18L as the variant, how does the protein stability index read?
Answer: 2.76

Question: Which protein stability index does the source give for E18V here?
Answer: 2.71

Question: Which protein stability index does the source give for E18T here?
Answer: 3.59

Question: For E18Q, which protein stability index is on record?
Answer: 3.94

Question: For E18R, which protein stability index is on record?
Answer: 2.15

Question: For E18M, which protein stability index is on record?
Answer: 2.61

Question: For E18S, which protein stability index is on record?
Answer: 3.87

Question: Which protein stability index does the source give for P21C here?
Answer: 3.55

Question: Which protein stability index does the source give for P21T here?
Answer: 4.56

Question: For P21F, which protein stability index is on record?
Answer: 3.72

Question: Which protein stability index does the source give for P21V here?
Answer: 4.41

Question: Which protein stability index does the source give for P21A here?
Answer: 4.8

Question: For P21M, which protein stability index is on record?
Answer: 4.4

Question: Which protein stability index does the source give for P21S here?
Answer: 4.53

Question: Which protein stability index does the source give for P21D here?
Answer: 4.92

Question: Which protein stability index does the source give for P21W here?
Answer: 3.53

Question: Which protein stability index does the source give for P21G here?
Answer: 4.45

Question: With P21K as the variant, how does the protein stability index read?
Answer: 5.04

Question: Which protein stability index does the source give for P21R here?
Answer: 4.47

Question: For P21Y, which protein stability index is on record?
Answer: 3.39

Question: For P21Q, which protein stability index is on record?
Answer: 4.84

Question: With P21L as the variant, how does the protein stability index read?
Answer: 3.6

Question: Which protein stability index does the source give for P21E here?
Answer: 5.38

Question: Which protein stability index does the source give for P21N here?
Answer: 4.85

Question: For P21H, which protein stability index is on record?
Answer: 4.57

Question: With P21I as the variant, how does the protein stability index read?
Answer: 4.22

Question: With K14Y as the variant, how does the protein stability index read?
Answer: 4.14

Question: For S23A, which protein stability index is on record?
Answer: 3.76

Question: With S23E as the variant, how does the protein stability index read?
Answer: 4.89

Question: Which protein stability index does the source give for S23P here?
Answer: 4.5

Question: Which protein stability index does the source give for S23K here?
Answer: 4.28

Question: For S23I, which protein stability index is on record?
Answer: 4.1

Question: Which protein stability index does the source give for S23H here?
Answer: 4.17

Question: Which protein stability index does the source give for S23N here?
Answer: 4.47

Question: Which protein stability index does the source give for S23C here?
Answer: 4.35

Question: With S23D as the variant, how does the protein stability index read?
Answer: 5.1

Question: With S23M as the variant, how does the protein stability index read?
Answer: 4.15

Question: For S23L, which protein stability index is on record?
Answer: 4.22

Question: With S23G as the variant, how does the protein stability index read?
Answer: 4.43

Question: With S23F as the variant, how does the protein stability index read?
Answer: 3.72

Question: For S23Q, which protein stability index is on record?
Answer: 4.71

Question: For H16K, which protein stability index is on record?
Answer: 5.08

Question: With H16P as the variant, how does the protein stability index read?
Answer: 5.07

Question: With H16D as the variant, how does the protein stability index read?
Answer: 4.25

Question: With H16R as the variant, how does the protein stability index read?
Answer: 4.28

Question: Which protein stability index does the source give for H16I here?
Answer: 3.93

Question: With H16F as the variant, how does the protein stability index read?
Answer: 3.42

Question: For H16S, which protein stability index is on record?
Answer: 4.58

Question: With H16E as the variant, how does the protein stability index read?
Answer: 4.6

Question: For H16L, which protein stability index is on record?
Answer: 4.08

Question: With H16C as the variant, how does the protein stability index read?
Answer: 4.2

Question: With H16G as the variant, how does the protein stability index read?
Answer: 3.88

Question: Which protein stability index does the source give for H16V here?
Answer: 4.05

Question: For H16W, which protein stability index is on record?
Answer: 3.02

Question: Which protein stability index does the source give for H16M here?
Answer: 3.29

Question: Which protein stability index does the source give for H16N here?
Answer: 5.11

Question: With H16Q as the variant, how does the protein stability index read?
Answer: 4.53

Question: Which protein stability index does the source give for H16Y here?
Answer: 3.33

Question: Which protein stability index does the source give for H16T here?
Answer: 4.29

Question: With H16A as the variant, how does the protein stability index read?
Answer: 4.24
